T1: SRF (serum response factor) (UniProt Q9JM73 Q9JM73:1-504)
T1 sequence: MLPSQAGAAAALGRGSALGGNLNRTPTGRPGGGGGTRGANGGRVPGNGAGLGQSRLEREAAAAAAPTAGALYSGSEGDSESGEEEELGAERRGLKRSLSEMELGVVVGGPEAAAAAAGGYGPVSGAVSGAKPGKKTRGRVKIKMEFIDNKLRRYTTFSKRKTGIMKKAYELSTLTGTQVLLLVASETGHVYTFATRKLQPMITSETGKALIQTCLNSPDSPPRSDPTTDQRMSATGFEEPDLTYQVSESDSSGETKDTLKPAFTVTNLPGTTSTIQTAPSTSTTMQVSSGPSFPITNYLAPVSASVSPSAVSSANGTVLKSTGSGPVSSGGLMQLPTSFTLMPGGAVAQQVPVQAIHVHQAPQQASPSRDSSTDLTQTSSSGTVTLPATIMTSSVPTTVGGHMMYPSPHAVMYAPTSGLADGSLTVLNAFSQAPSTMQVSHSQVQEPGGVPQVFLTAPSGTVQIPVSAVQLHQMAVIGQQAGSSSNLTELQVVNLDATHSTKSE

B1: miR-143/145 enhancer SRF site (CArG) WT (dsDNA)
DNA 1: GGGAGCAGCCTTGCCATATAAGGGCAGG
DNA 2: CCTGCCCTTATATGGCAAGGCTGCTCCC
B2: miR-143/145 enhancer SRF site mutant (dsDNA)
DNA 1: GGGAGCAGCCTTGCTACCGAAGGGCAGG
DNA 2: CCTGCCCTTCGGTAGCAAGGCTGCTCCC

Key:
[1] = target: T1, SRF (serum response factor); experiment: EMSA; radiolabeled probe; cold WT competition
[2] = target: T1, SRF (serum response factor); experiment: competition; cold mutant competitor; competition with WT or mutant probe indicates specificity of band

Row | Binder | binding result [1] | binding result [2]
1 | B1 | binds | –
2 | B2 | – | no binding

Source: patent US20120093789, “Methods of Modulating Smooth Muscle Cell Proliferation and Differentiation” (published 2012)
